These results are taken from the supplement of paper PMC10567573.

The chains are these.
B1: ZNF511 (parent)
chain: YEHHYHTLHGNVCSFCKRAFPSGH
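Note: lentivirally expressed fusions sorted by FACS into six bins by GFP to DsRed ratio, PSI derived from sequencing read proportions per bin multiplied by bin number.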

This data set covers variants of B1. Put plainly: protein stability index of a GFP-peptide fusion (GPS, HEK-293T) (PSI 1-6); higher = more stable. To be noted: c terminus: a fixed tail appended.
Take KEHHYHTLHGNVCSFCKRAFPSGH [Y1K]: the protein stability index turned out to be 3.02.

Take QEHHYHTLHGNVCSFCKRAFPSGH [Y1Q]: the protein stability index worked out at 3.62.

GEHHYHTLHGNVCSFCKRAFPSGH [Y1G]: the protein stability index is 2.99.

Turning to YEHLYHTLHGNVCSFCKRAFPSGH [H4L], the protein stability index was 2.07.

Take YEHRYHTLHGNVCSFCKRAFPSGH [H4R]: the protein stability index came to 1.73.

Consider YEHWYHTLHGNVCSFCKRAFPSGH [H4W], for which the protein stability index was 1.73.

Consider YEHDYHTLHGNVCSFCKRAFPSGH [H4D], for which the protein stability index was 2.17.

On to YEHCYHTLHGNVCSFCKRAFPSGH [H4C], for which the protein stability index was found to be 3.26.

As for YEHVYHTLHGNVCSFCKRAFPSGH [H4V], the protein stability index was found to be 1.91.

For YEHNYHTLHGNVCSFCKRAFPSGH [H4N], the protein stability index was found to be 2.23.

In the case of YEHFYHTLHGNVCSFCKRAFPSGH [H4F], the protein stability index turned out to be 1.33.

In the case of YEHEYHTLHGNVCSFCKRAFPSGH [H4E], the protein stability index turned out to be 2.7.

As to YEHAYHTLHGNVCSFCKRAFPSGH [H4A], the protein stability index was found to be 1.75.

Turning to YEHGYHTLHGNVCSFCKRAFPSGH [H4G], the protein stability index stood at 2.05.

As for YEHPYHTLHGNVCSFCKRAFPSGH [H4P], the protein stability index was 2.38.

As to YEHTYHTLHGNVCSFCKRAFPSGH [H4T], the protein stability index was 1.95.

As to YEHYYHTLHGNVCSFCKRAFPSGH [H4Y], the protein stability index is 1.93.

Regarding YEHKYHTLHGNVCSFCKRAFPSGH [H4K], the protein stability index was determined as 2.03.

For the variant YEHMYHTLHGNVCSFCKRAFPSGH [H4M], the protein stability index stood at 2.52.

As for YEHIYHTLHGNVCSFCKRAFPSGH [H4I], the protein stability index is 1.82.

On to YEHQYHTLHGNVCSFCKRAFPSGH [H4Q], for which the protein stability index came to 2.1.

Take YEHSYHTLHGNVCSFCKRAFPSGH [H4S]: the protein stability index came to 2.43.

Regarding YQHHYHTLHGNVCSFCKRAFPSGH [E2Q], the protein stability index is 2.43.

YWHHYHTLHGNVCSFCKRAFPSGH [E2W]: the protein stability index stood at 2.85.

YSHHYHTLHGNVCSFCKRAFPSGH [E2S]: the protein stability index came to 3.32.

In the case of YAHHYHTLHGNVCSFCKRAFPSGH [E2A], the protein stability index turned out to be 3.31.

On to YPHHYHTLHGNVCSFCKRAFPSGH [E2P], for which the protein stability index was 1.54.

Regarding YFHHYHTLHGNVCSFCKRAFPSGH [E2F], the protein stability index is 3.12.

For the variant YGHHYHTLHGNVCSFCKRAFPSGH [E2G], the protein stability index was 2.9.

With YMHHYHTLHGNVCSFCKRAFPSGH [E2M], the protein stability index worked out at 2.08.

As for YRHHYHTLHGNVCSFCKRAFPSGH [E2R], the protein stability index worked out at 1.8.

On to YNHHYHTLHGNVCSFCKRAFPSGH [E2N], for which the protein stability index turned out to be 1.37.

As for YLHHYHTLHGNVCSFCKRAFPSGH [E2L], the protein stability index was 1.65.

As for YDHHYHTLHGNVCSFCKRAFPSGH [E2D], the protein stability index was 2.9.

Turning to YYHHYHTLHGNVCSFCKRAFPSGH [E2Y], the protein stability index is 2.27.

On to YKHHYHTLHGNVCSFCKRAFPSGH [E2K], for which the protein stability index was 1.76.

As to YTHHYHTLHGNVCSFCKRAFPSGH [E2T], the protein stability index is 3.14.

On to YHHHYHTLHGNVCSFCKRAFPSGH [E2H], for which the protein stability index came to 2.66.

In the case of YVHHYHTLHGNVCSFCKRAFPSGH [E2V], the protein stability index amounted to 2.89.

With YCHHYHTLHGNVCSFCKRAFPSGH [E2C], the protein stability index was determined as 2.15.

With YIHHYHTLHGNVCSFCKRAFPSGH [E2I], the protein stability index turned out to be 2.34.

YEVHYHTLHGNVCSFCKRAFPSGH [H3V]: the protein stability index was determined as 2.09.

For the variant YERHYHTLHGNVCSFCKRAFPSGH [H3R], the protein stability index was found to be 2.09.

Regarding YEEHYHTLHGNVCSFCKRAFPSGH [H3E], the protein stability index turned out to be 2.9.

For the variant YEWHYHTLHGNVCSFCKRAFPSGH [H3W], the protein stability index was 2.12.

On to YEKHYHTLHGNVCSFCKRAFPSGH [H3K], for which the protein stability index was 2.27.

In the case of YEPHYHTLHGNVCSFCKRAFPSGH [H3P], the protein stability index worked out at 2.8.

For the variant YEYHYHTLHGNVCSFCKRAFPSGH [H3Y], the protein stability index was 2.23.

YEGHYHTLHGNVCSFCKRAFPSGH [H3G]: the protein stability index was determined as 3.04.

Consider YECHYHTLHGNVCSFCKRAFPSGH [H3C], for which the protein stability index came out at 3.57.

For YENHYHTLHGNVCSFCKRAFPSGH [H3N], the protein stability index was determined as 2.52.

Turning to YESHYHTLHGNVCSFCKRAFPSGH [H3S], the protein stability index came to 2.6.

In the case of YEMHYHTLHGNVCSFCKRAFPSGH [H3M], the protein stability index came out at 1.94.

With YEFHYHTLHGNVCSFCKRAFPSGH [H3F], the protein stability index was 2.06.

As for YEAHYHTLHGNVCSFCKRAFPSGH [H3A], the protein stability index was 1.97.

On to YELHYHTLHGNVCSFCKRAFPSGH [H3L], for which the protein stability index stood at 2.13.

As for YEIHYHTLHGNVCSFCKRAFPSGH [H3I], the protein stability index turned out to be 2.18.

In the case of YEDHYHTLHGNVCSFCKRAFPSGH [H3D], the protein stability index came out at 3.06.

As for YETHYHTLHGNVCSFCKRAFPSGH [H3T], the protein stability index was 2.91.

For YEQHYHTLHGNVCSFCKRAFPSGH [H3Q], the protein stability index stood at 2.19.

On to YEHHYETLHGNVCSFCKRAFPSGH [H6E], for which the protein stability index was determined as 2.4.

Take YEHHYQTLHGNVCSFCKRAFPSGH [H6Q]: the protein stability index was determined as 1.88.

For YEHHYKTLHGNVCSFCKRAFPSGH [H6K], the protein stability index was 1.53.

For the variant YEHHYITLHGNVCSFCKRAFPSGH [H6I], the protein stability index is 2.15.

For the variant YEHHYNTLHGNVCSFCKRAFPSGH [H6N], the protein stability index is 2.33.

For YEHHYDTLHGNVCSFCKRAFPSGH [H6D], the protein stability index was found to be 2.34.

Take YEHHYATLHGNVCSFCKRAFPSGH [H6A]: the protein stability index turned out to be 1.88.

Consider YEHHYFTLHGNVCSFCKRAFPSGH [H6F], for which the protein stability index came out at 1.48.

On to YEHHYPTLHGNVCSFCKRAFPSGH [H6P], for which the protein stability index worked out at 1.68.

In the case of YEHHYSTLHGNVCSFCKRAFPSGH [H6S], the protein stability index is 1.92.

Take YEHHYMTLHGNVCSFCKRAFPSGH [H6M]: the protein stability index was found to be 1.6.

For the variant YEHHYLTLHGNVCSFCKRAFPSGH [H6L], the protein stability index came out at 1.72.

On to YEHHYGTLHGNVCSFCKRAFPSGH [H6G], for which the protein stability index came to 1.69.

For YEHHYCTLHGNVCSFCKRAFPSGH [H6C], the protein stability index came to 2.6.

Take YEHHYRTLHGNVCSFCKRAFPSGH [H6R]: the protein stability index came out at 1.38.

Regarding YEHHNHTLHGNVCSFCKRAFPSGH [Y5N], the protein stability index amounted to 3.01.

On to YEHHQHTLHGNVCSFCKRAFPSGH [Y5Q], for which the protein stability index stood at 3.28.

Turning to YEHHMHTLHGNVCSFCKRAFPSGH [Y5M], the protein stability index amounted to 2.39.

For YEHHPHTLHGNVCSFCKRAFPSGH [Y5P], the protein stability index amounted to 3.04.

As for YEHHCHTLHGNVCSFCKRAFPSGH [Y5C], the protein stability index worked out at 3.95.

On to YEHHKHTLHGNVCSFCKRAFPSGH [Y5K], for which the protein stability index came to 2.54.

Turning to YEHHIHTLHGNVCSFCKRAFPSGH [Y5I], the protein stability index was 2.68.

In the case of YEHHWHTLHGNVCSFCKRAFPSGH [Y5W], the protein stability index stood at 2.32.

With YEHHEHTLHGNVCSFCKRAFPSGH [Y5E], the protein stability index came out at 3.85.

YEHHDHTLHGNVCSFCKRAFPSGH [Y5D]: the protein stability index is 3.51.

On to YEHHAHTLHGNVCSFCKRAFPSGH [Y5A], for which the protein stability index stood at 2.81.

Regarding YEHHFHTLHGNVCSFCKRAFPSGH [Y5F], the protein stability index was 2.29.

With YEHHHHTLHGNVCSFCKRAFPSGH [Y5H], the protein stability index is 3.22.

As to YEHHVHTLHGNVCSFCKRAFPSGH [Y5V], the protein stability index came to 3.47.

Regarding YEHHSHTLHGNVCSFCKRAFPSGH [Y5S], the protein stability index was 3.01.

Turning to YEHHLHTLHGNVCSFCKRAFPSGH [Y5L], the protein stability index is 2.48.

Take YEHHTHTLHGNVCSFCKRAFPSGH [Y5T]: the protein stability index is 3.67.

In the case of YEHHRHTLHGNVCSFCKRAFPSGH [Y5R], the protein stability index turned out to be 2.62.

As to YEHHGHTLHGNVCSFCKRAFPSGH [Y5G], the protein stability index came to 3.54.
